Data reported in US9193755B1, “TFEB variants and uses thereof” (Fondazione Telethon, priority 2011, dated 2015).

Legend:
HeLa cells [1] = experiment: Subcellular localization and mobility of mutated TFEB-3xFlag in HeLa cells; type: cell-based, human; conditions: for TFEB subcellular localization of serine-to-alanine mutants: HeLa cells, Flag immunostaining
Experimental: Cells were transiently transfected with DNA plasmids pRK5-mycPAT1, pCEP4-TFEB-his, pC1G2-TFEB, and p3 x FLAG-CMVTFEB using lipofectamine2000 or LTX (Invitrogen) according to the protocol from manufacturer. Site-direct mutagenesis was performed according to the manufacturer instructions (Stratagene) verifying the correct mutagenesis by sequencing.
Cells were seeded at 50% of confluence in 6 well dishes and serum starved overnight (ON). Normal medium was added the following day either in presence of DMSO or kinase inhibitors. Subcellular fractionation was carried out as previously reported. Briefly, cells were lysed in 0.5 Triton X-100 lysis buffer (50 mM Tris-HCl, 0.5% triton, 137.5 mM NaCl, 10% glycerol, 5 mM EDTA supplemented with fresh protease and phosphatase inhibitors. Supernatant represented cytosolic fraction while nuclear pellet was washed twice and lysed in 0.5 Triton X-100 buffer 0.5% SDS and sonicated.

HeLa cells [2] = experiment: Autophagosome number / LC3II level in HeLa cells; type: cell-based, human
From the text: Cells or tissues were solubilized in RIPA buffer supplemented with protease (ROCHE) and Phosphatase (SIGMA) inhibitors. From 10 to 30 micrograms were loaded on 4-12% Bis-Tris gel (NUPAGE, Invitrogen), transferred to PVDF membranes and analyzed by western blot using the ECL method (Pierce). The following antibodies were used: LC3 (Novus Biological), FLAG, b-ACTIN, TUBULIN (SIGMA), HA (Covance), H3, ERK1/2, p-ERK1/2, p-AKT, p-70S6K (Cell Signaling), ERK2 (Santa Cruz). Protein levels were quantified by using ImageJ software analysis.

TFEB target genes = experiment: qPCR of TFEB target genes after transfection with normal and mutant TFEB plasmids; type: cell-based, human; conditions: 24 h post-transfection, compared to TFEB(WT), TFEB(S332A) and TFEB(S402A)
From the text: (§1) Asterisks in the graph indicate that the P-value was <0.05.

[3] = test system: MEFs, NSCs, HeLa, and COS-7 cells; experiment: Release of lysosomal enzymes in the culture medium; type: cell-based; conditions: TFEB overexpression; acid phosphatase, beta-galactosidase, beta-hexosaminidase
Experimental: Lysosomal enzymes acid phosphatase, beta-galactosidase, and beta-hexosaminidaseactivities were measured using the appropriate fluorimetric or colorimetric substrates. SGSH activity was measured following protocols described in Fraldi et al., Hum Mol Gen 2007 (33).

[4] = test system: mouse embryonic fibroblast (MEFs); experiment: Electron microscopy of MEFs infected with lentivirus overexpressing TFEB; type: cell-based
Experimental: Control and TFEB-overexpressing cells were washed with PBS, and fixed in 1% glutaraldehyde dissolved in 0.2 M Hepes buffer (pH 7.4) for 30 min at room temperature. The cells were then postfixed for 2 h in OsO4. After dehydration in graded series of ethanol, the cells were embedded in Epon 812 (Fluka) and polymerized at 60° C. for 72 h. Thin sections were cut at the Leica EM UC6, counterstained with uranyl acetate and lead citrate. EM images were acquired from thin sections using a Philips Tecnai-12 electron microscope equipped with an ULTRA VIEW CCD digital camera (Philips, Eindhoven, The Netherlands). Quantification of vacuolization was performed using the AnalySIS software (Soft Imaging Systems GmbH, Munster, Germany). Selection of cells for quantification was based on their suitability for stereologic analysis, i.e. only cells sectioned through their central region (detected on the basis of the presence of Golgi membranes) were analyzed.

[5] = test system: autophagy-related genes in HeLa cells; experiment: qPCR of autophagy-related genes in TFEB stable overexpressing HeLa cells; type: cell-based, human; conditions: TFEB stable overexpression
From the text: as §1

long-lived proteins = experiment: Degradation of long-lived proteins; type: cell-based; conditions: TFEB overexpression
Experimental: Sub-confluent cells were incubated with L-U^14C-serine for 20 h and chased for 1 h with cold media to degrade short-lived proteins. Subsequently cells were incubated with either normal media or starvation media (eventually in the presence of 3-MA) for 4 h. The rate of long-lived protein degradation was calculated from the ratio of soluble radioactivity in the media to that insoluble in the acid-precipitable cell pellet.

LSDs = conditions: TFEB overexpression (45); cited from earlier work
[6] = test system: HeLa cells stably expressing GFP-mRFP-LC3; experiment: RFP-GFP tandem tagged LC3 autophagosome-lysosome fusion assay; type: cell-based, human; conditions: TFEB overexpressing cells compared to control cells

B1: TFEB(S142A): TFEB variant with serine 142 mutated to alanine (protein, UniProt P19484 1-476, looked up, variant S142A)
Transcription factor EB: MASRIGLRMQLMREQAQQEEQRERMQQQAVMHYMQQQQQQQQQQLGGPPTPAINTPVHFQSPPPVPGEVLKVQSYLENPTSYHLQQSQHQKVREYLSETYGNKFAAHISPAQGSPKPPPAASPGVRAGHVLSSSAGNSAPNAPMAMLHIGSNPERELDDVIDNIMRLDDVLGYINPEMQMPNTLPLSSSHLNVYSSDPQVTASLVGVTSSSCPADLTQKRELTDAESRALAKERQKKDNHNLIERRRRFNINDRIKELGMLIPKANDLDVRWNKGTILKASVDYIRRMQKDLQKSRELENHSRRLEMTNKQLWLRIQELEMQARVHGLPTTSPSGMNMAELAQQVVKQELPSEEGPGEALMLGAEVPDPEPLPALPPQAPLPLPTQPPSPFHHLDFSHSLSFGGREDEGPPGYPEPLAPGHGSPFPSLSKKDLDLMLLDDSLLPLASDPLLSTMSPEASKASSRRSSFSMEEGDVL
modifications: 3xFlag tag
notes: TFEB variant with serine 142 mutated to alanine
- TFEB subcellular localization of serine-to-alanine mutants (HeLa cells [1]): constitutive nuclear localization
- nuclear localization of mutant TFEB (HeLa cells [1]; compared to TFEB(WT), TFEB(S332A) and TFEB(S402A)): significantly increased nuclear localization
- induction of the autophagic/lysosomal system (autophagosomes, lysosomes, autophagolysosomes) (HeLa cells [2]; compared to wt TFEB): stronger induction
- expression levels of TFEB target genes (TFEB target genes): increased expression levels

B2: S211A: TFEB with serine-to-alanine mutation at position 211 (protein, UniProt P19484 1-476, looked up, variant S211A)
Transcription factor EB: MASRIGLRMQLMREQAQQEEQRERMQQQAVMHYMQQQQQQQQQQLGGPPTPAINTPVHFQSPPPVPGEVLKVQSYLENPTSYHLQQSQHQKVREYLSETYGNKFAAHISPAQGSPKPPPAASPGVRAGHVLSSSAGNSAPNSPMAMLHIGSNPERELDDVIDNIMRLDDVLGYINPEMQMPNTLPLSSSHLNVYSSDPQVTASLVGVTSSACPADLTQKRELTDAESRALAKERQKKDNHNLIERRRRFNINDRIKELGMLIPKANDLDVRWNKGTILKASVDYIRRMQKDLQKSRELENHSRRLEMTNKQLWLRIQELEMQARVHGLPTTSPSGMNMAELAQQVVKQELPSEEGPGEALMLGAEVPDPEPLPALPPQAPLPLPTQPPSPFHHLDFSHSLSFGGREDEGPPGYPEPLAPGHGSPFPSLSKKDLDLMLLDDSLLPLASDPLLSTMSPEASKASSRRSSFSMEEGDVL
- TFEB subcellular localization of serine-to-alanine mutants (HeLa cells [1]): constitutive nuclear localization

B3: TFEB S142D: phospho-mimetic mutant of TFEB (protein, UniProt P19484 1-476, looked up, variant S142D)
Transcription factor EB: MASRIGLRMQLMREQAQQEEQRERMQQQAVMHYMQQQQQQQQQQLGGPPTPAINTPVHFQSPPPVPGEVLKVQSYLENPTSYHLQQSQHQKVREYLSETYGNKFAAHISPAQGSPKPPPAASPGVRAGHVLSSSAGNSAPNDPMAMLHIGSNPERELDDVIDNIMRLDDVLGYINPEMQMPNTLPLSSSHLNVYSSDPQVTASLVGVTSSSCPADLTQKRELTDAESRALAKERQKKDNHNLIERRRRFNINDRIKELGMLIPKANDLDVRWNKGTILKASVDYIRRMQKDLQKSRELENHSRRLEMTNKQLWLRIQELEMQARVHGLPTTSPSGMNMAELAQQVVKQELPSEEGPGEALMLGAEVPDPEPLPALPPQAPLPLPTQPPSPFHHLDFSHSLSFGGREDEGPPGYPEPLAPGHGSPFPSLSKKDLDLMLLDDSLLPLASDPLLSTMSPEASKASSRRSSFSMEEGDVL
modifications: 3xFlag tag
- translocation into the nucleus upon nutrient starvation (HeLa cells [1]; nutrient starvation): unable to translocate into the nucleus

B4: TFEB: transcription factor EB, Seq. Id No. 2, overexpressed from plasmid, lentivirus or stable clone (protein, listed as Homo sapiens)
chain: MASRIGLRMQLMREQAQQEEQRERMQQQAVMHYMQQQQQQQQQQLGGPPTPAINTPVHFQSPPPVPGEVLKVQSYLENPTSYHLQQSQHQKVREYLSETYGNKFAAHISPAQGSPKPPPAASPGVRAGHVLSSSAGNSAPNSPMAMLHIGSNPERELDDVIDNIMRLDDVLGYINPEMQMPNTLPLSSSHLNVYSSDPQVTASLVGVTSSSCPADLTQKRELTDAESRALAKERQKKDNHNLIERRRRFNINDRIKELGMLIPKANDLDVRWNKGTILKASVDYIRRMQKDLQKSRELENHSRRLEMTNKQLWLRIQELEMQARVHGLPTTSPSGMNMAELAQQVVKQELPSEEGPGEALMLGAEVPDPEPLPALPPQAPLPLPTQPPSPFHHLDFSHSLSFGGREDEGPPGYPEPLAPGHGSPFPSLSKKDLDLMLLDDSLLPLASDPLLSTMSPEASKASSRRSSFSMEEGDVL
- release of lysosomal enzymes in the culture medium [3]: increases the release of lysosomal enzymes
- number of autophagosomes by electron microscopy [4]: An increase in the number of autophagosomes
- AKT1 FOLD INCREASE [5]: 1.2 fold
- AMBRA1 FOLD INCREASE [5]: 1.2 fold
- APP FOLD INCREASE [5]: 1.4 fold
- ARSA FOLD INCREASE [5]: 1.3 fold
- ATG3 FOLD INCREASE [5]: 1.2 fold
- ATG4A FOLD INCREASE [5]: 1.2 fold
- ATG4B FOLD INCREASE [5]: 1.3 fold
- ATG4C FOLD INCREASE [5]: 1.1 fold
- ATG4D FOLD INCREASE [5]: 1.6 fold
- ATG5 FOLD INCREASE [5]: 1.2 fold
- ATG7 FOLD INCREASE [5]: 1.2 fold
- ATG9A FOLD INCREASE [5]: 1.1 fold
- ATG9B FOLD INCREASE [5]: 5.6 fold
- ATG10 FOLD INCREASE [5]: 1.1 fold
- ATG12 FOLD INCREASE [5]: 1.2 fold
- ATG16L1 FOLD INCREASE [5]: −1.2 fold
- ATG16L2 FOLD INCREASE [5]: 1.1 fold
- BAD FOLD INCREASE [5]: 1.0 fold
- BAK1 FOLD INCREASE [5]: 1.4 fold
- BAX FOLD INCREASE [5]: 1.2 fold
- BCL2 FOLD INCREASE [5]: 1.5 fold
- BECN1 FOLD INCREASE [5]: 1.2 fold
- BID FOLD INCREASE [5]: 1.2 fold
- BNIP3 FOLD INCREASE [5]: 1.1 fold
- CLN3 FOLD INCREASE [5]: 1.5 fold
- CXCR4 FOLD INCREASE [5]: 1.3 fold
- DRAM FOLD INCREASE [5]: 1.8 fold
- EIF2AK3 FOLD INCREASE [5]: 1.4 fold
- EIF4G1 FOLD INCREASE [5]: 1.3 fold
- FAM176A FOLD INCREASE [5]: 1.6 fold
- GAA FOLD INCREASE [5]: 1.3 fold
- GABARAP FOLD INCREASE [5]: 1.1 fold
- GABARAPL1 FOLD INCREASE [5]: 1.0 fold
- GABARAPL2 FOLD INCREASE [5]: 1.1 fold
- HGS FOLD INCREASE [5]: −1.1 fold
- HTT FOLD INCREASE [5]: 1.0 fold
- MAP1LC3A FOLD INCREASE [5]: 1.1 fold
- MAP1LC3B FOLD INCREASE [5]: 1.2 fold
- PIK3C3 FOLD INCREASE [5]: −1.2 fold
- PIK3R4 FOLD INCREASE [5]: 1.1 fold
- PTEN FOLD INCREASE [5]: 1.1 fold
- RAB24 FOLD INCREASE [5]: 1.2 fold
- RGS19 FOLD INCREASE [5]: 1.2 fold
- SNCA FOLD INCREASE [5]: 1.6 fold
- SQSTM1 FOLD INCREASE [5]: 2.4 fold
- TP53 FOLD INCREASE [5]: 1.1 fold
- ULK1 FOLD INCREASE [5]: 1.1 fold
- UVRAG FOLD INCREASE [5]: 1.8 fold
- VPS11 FOLD INCREASE [5]: 1.4 fold
- VPS18 FOLD INCREASE [5]: 1.4 fold
- WIPI FOLD INCREASE [5]: 2.5 fold
- degradation of long-lived proteins (long-lived proteins): enhanced
- number of autophagosomes (LC3 marker) (HeLa cells [2]; stable TFEB overexpression in HeLa cells): increased significantly
- substrate clearance and cellular vacuolization in LSDs (LSDs): able to promote substrate clearance and to rescue cellular vacuolization
- number of autophagolysosomes [6]: higher
